Substitutions are numbered along the chain they refer to.
What was measured:
[1] = target: T1, human beta klotho mutant Y701A on HEK-293T cells (human, UniProt Q86Z14 1-1044); experiment: shotgun alanine mutagenesis, FACS on HEK-293T cells, antibody 0.5 µg/ml
T1 sequence: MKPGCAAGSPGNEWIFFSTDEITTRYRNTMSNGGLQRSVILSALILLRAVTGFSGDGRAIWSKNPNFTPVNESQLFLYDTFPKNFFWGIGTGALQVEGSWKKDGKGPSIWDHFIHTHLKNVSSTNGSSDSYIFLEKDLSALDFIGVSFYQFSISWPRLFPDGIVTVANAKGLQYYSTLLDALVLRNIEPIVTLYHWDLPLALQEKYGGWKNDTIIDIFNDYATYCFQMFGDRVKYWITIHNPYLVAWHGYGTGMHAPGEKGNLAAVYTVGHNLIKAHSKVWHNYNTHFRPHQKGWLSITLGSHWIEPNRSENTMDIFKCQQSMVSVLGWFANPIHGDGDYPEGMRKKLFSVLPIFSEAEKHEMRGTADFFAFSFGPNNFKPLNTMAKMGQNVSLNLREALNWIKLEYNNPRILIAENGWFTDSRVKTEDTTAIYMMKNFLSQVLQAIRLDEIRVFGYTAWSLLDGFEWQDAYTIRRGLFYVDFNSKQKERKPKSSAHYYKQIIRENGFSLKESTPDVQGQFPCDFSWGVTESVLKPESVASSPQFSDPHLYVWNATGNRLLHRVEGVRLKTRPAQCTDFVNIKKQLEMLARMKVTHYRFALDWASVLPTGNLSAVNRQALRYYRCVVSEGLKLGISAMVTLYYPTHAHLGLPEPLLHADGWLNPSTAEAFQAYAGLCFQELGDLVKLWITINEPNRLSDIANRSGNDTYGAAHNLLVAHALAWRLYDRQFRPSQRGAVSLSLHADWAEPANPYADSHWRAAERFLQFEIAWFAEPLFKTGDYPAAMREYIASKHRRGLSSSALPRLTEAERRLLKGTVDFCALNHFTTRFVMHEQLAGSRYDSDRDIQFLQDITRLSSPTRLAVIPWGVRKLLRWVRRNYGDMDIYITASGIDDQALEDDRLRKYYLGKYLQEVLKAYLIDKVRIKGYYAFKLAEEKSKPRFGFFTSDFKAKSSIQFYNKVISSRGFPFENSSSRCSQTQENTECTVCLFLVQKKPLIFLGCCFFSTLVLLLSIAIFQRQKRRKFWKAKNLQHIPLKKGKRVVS
Description: (§1) In order to further identify specific binding residues within human beta klotho KL2 domain, shotgun mutagenesis was used to separately mutate individual residues of the KL2 domain of human beta klotho to an alanine (e.g., residues F508A-L1008A). […] For example, screening of the beta klotho mutant proteins was conducted at a concentration of 0.5 μg/ml for the humanized 5H23 antibody, 1.0 μg/ml for the Fab fragment, and 2.0 μg/ml for a positive control polyclonal anti-beta klotho antibodies.
(§2) The resulting mapping identified three specific binding residues, H657, Y701 and R703, which were negative for binding by the humanized 5H23 antibody, but were positive for the control polyclonal anti-beta klotho antibodies. These residues represented amino acids whose side changes made the highest energetic contributions to the antibody-epitope interation as shown in Table 31. The locations of the three identified residues were modeled by showing them (dark spheres) at the equivalent positions on human cytosolic beta-glucosidase (PDB ID #2JFE; Tribolo et al., J. Mol. Biol. 370, 964-975 (2007)), identified by BLAST alignment of the two proteins as shown in FIG. 6.

[2] = target: T2, human beta klotho mutant R703A on HEK-293T cells (human, UniProt Q86Z14 1-1044); experiment: as above
T2 sequence: T1 sequence with A701Y, R703A
Description: as §1, §2

B1: humanized 5H23 antibody (VH SEQ ID NO: 271 and VL SEQ ID NO: 276) (antibody, V domains shown)
VH: QVQLQQSGAEVKKPGASVKVSCKASGYTFTSYDINWVRQAPGQGLEWIGWIYPGDGSTKYNEKFKGKATITRDTSASTAYMELSSLRSEDTAVYFCARSDYYGSRSFAYWGQGTLVTVSS
VL: DIVMTQSPDSLAVSLGERATINCRASKSVSTSGYVYMHWYQQKPGQPPKLLIYLASYLESGVPDRFSGSGSGTDFTLTISSVQAEDVAVYYCQHSRDLTFPFGGGTKLEIK
notes: also called h5H23; h5H23 (Prep 1)
[1]
  Binding Reactivity (% WT): 0.64 % WT
[2]
  Binding Reactivity (% WT): 1.64 % WT

From US20210030857A1 (NGM BIOPHARMACEUTICALS, published 2021)
